The text below walks through data of paper doi:10.1101/2024.09.05.611129 (bioRxiv, 2024).

This series concerns the molecule itself. Briefly: SEC.

B1: Mycobacterium tuberculosis catalase-peroxidase KatG (enzyme)
chain: MPEQHPPITETTTGAASNGCPVVGHMKYPVEGGGNQDWWPNRLNLKVLHQNPAVADPMGAAFDYAAEVATIDVDALTRDIEEVMTTSQPWWPADYGHYGPLFIRMAWHAAGTYRIHDGRGGAGGGMQRFAPLNSWPDNASLDKARRLLWPVKKKYGKKLSWADLIVFAGNCALESMGFKTFGFGFGRVDQWEPDEVYWGKEATWLGDERYSGKRDLENPLAAVQMGLIYVNPEGPNGNPDPMAAAVDIRETFRRMAMNDVETAALIVGGHTFGKTHGAGPADLVGPEPEAAPLEQMGLGWKSSYGTGTGKDAITSGIEVVWTNTPTKWDNSFLEILYGYEWELTKSPAGAWQYTAKDGAGAGTIPDPFGGPGRSPTMLATDLSLRVDPIYERITRRWLEHPEELADEFAKAWYKLIHRDMGPVARYLGPLVPKQTLLWQDPVPAVSHDLVGEAEIASLKSQIRASGLTVSQLVSTAWAAASSFRGSDKRGGANGGRIRLQPQVGWEVNDPDGDLRKVIRTLEEIQESFNSAAPGNIKVSFADLVVLGGCAAIEKAAKAAGHNITVPFTPGRTDASQEQTDVESFAVLEPKADGFRNYLGKGNPLPAEYMLLDKANLLTLSAPEMTVLVGGLRVLGANYKRLPLGVFTEASESLTNDFFVNLLDMGITWEPSPADDGTYQGKDGSGKVKWTGSRVDLVFGSNSELRALVEVYGADDAQPKFVQDFVAAWDKVMNLDRFDVR
Turning to B1, the “stoichiometry N” value stood at 2.
